Assay results: patent US20140045211

How the values were obtained:
[1] = biological target: 2D6 ubiquitin-CCL7 fusion
[2] = biological target: 3D3 ubiquitin-CCL7 fusion (ubiquitin I3L, V17L, I23V)

B1: Usp2-cc (catalytic core of the mouse deubiquitylating enzyme Usp2) (protein)
chain: SKSAQGLAGLRNLGNTCFMNSILQCLSNTRELRDYCLQRLYMRDLGHTSSAHTALMEEFAKLIQTIWTSSPNDVVSPSEFKTQIQRYAPRFMGYNQQDAQEFLRFLLDGLHNEVNRVAARPKASPETLDHLPDEEKGRQMWRKYLEREDSRIGDLFVGQLKSSLTCTDCGYCSTVFDPFWDLSLPIAKRGYPEVTLMDCMRLFTKEDILDGDEKPTCCRCRARKRCIKKFSVQRFPKILVLHLKRFSESRIRTSKLTTFVNFPLRDLDLREFASENTNHAVYNLYAVSNHSGTTMGGHYTAYCRSPVTGEWHTFNDSSVTPMSSSQVRTSDAYLLFYELASPPSRM
[1]
  Usp2-cc cleavage time course (SDS-PAGE): the 2D6 fusion (2D6-CCL7) was only partially cleavable, with large amounts of fusion remaining uncleaved after 12 hr
[2]
  Usp2-cc cleavage time course (SDS-PAGE): 3D3 ubiquitin (3D3-CCL7) was recognized and cleaved with efficiency similar to that observed for wildtype ubiquitin (WT-CCL7)
